Reference: the supplement of paper PMC9112550, “Optimization of the antimicrobial peptide Bac7 by deep mutational scanning” (BMC Biology, 2022)

System: Escherichia coli TOP10
Experiment: shrunken log2 fold change of peptide-encoding DNA abundance (4.5 h post-induction vs induction); higher = less antimicrobial activity (less host growth inhibition)
Conditions: time post-induction: 4.5 h; library: site-saturation at positions 5, 18, 19, 20
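Note: peptides expressed intracellularly from a pBAD plasmid library in pooled LB shake-flask culture, induced with 0.3% L-arabinose, DNA abundance read by NGS, three biological replicates, DESeq2 with apeglm shrinkage.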

Sequence | shrunken log2 fold change
RRIRGRPPRLPRPRPRPTFRPRP | -0.135
RRIRRRPPRLPRPRPRPRRYPRP | 0.0835
RRIRNRPPRLPRPRPRPYFDPRP | -0.0504
RRIRARPPRLPRPRPRPQFPPRP | 0.0321
RRIRNRPPRLPRPRPRPGMDPRP | -0.0895
RRIRPRPPRLPRPRPRPCQNPRP | -0.0169
RRIRLRPPRLPRPRPRPIVHPRP | 0.67
RRIRTRPPRLPRPRPRPCVSPRP | -0.221
RRIRLRPPRLPRPRPRPNGRPRP | -0.192
RRIRNRPPRLPRPRPRPKRKPRP | 0.226
RRIRWRPPRLPRPRPRPFTLPRP | 3.06
RRIRERPPRLPRPRPRPMPYPRP | -0.0164
RRIRVRPPRLPRPRPRPGWKPRP | 0.169
RRIRRRPPRLPRPRPRPTTDPRP | 0.647
RRIRNRPPRLPRPRPRPALCPRP | -0.0208
RRIRERPPRLPRPRPRPTLNPRP | -0.152
RRIRERPPRLPRPRPRPKFQPRP | -0.268
RRIRGRPPRLPRPRPRPEWCPRP | 1.19
RRIRVRPPRLPRPRPRPRWKPRP | 0.328
RRIRPRPPRLPRPRPRPMCWPRP | 0.156
RRIRFRPPRLPRPRPRPNPAPRP | 0.0261
RRIRPRPPRLPRPRPRPIHIPRP | -0.405
RRIRRRPPRLPRPRPRPVCTPRP | 0.575
RRIRKRPPRLPRPRPRPGVMPRP | 0.895
RRIRCRPPRLPRPRPRPYFFPRP | -0.614

Sequence | shrunken log2 fold change
RRIRARPPRLPRPRPRPDHYPRP | -0.287
RRIRLRPPRLPRPRPRPLKDPRP | -0.0949
RRIRVRPPRLPRPRPRPCEEPRP | 0.24
RRIRERPPRLPRPRPRPTAHPRP | 0.0481
RRIRFRPPRLPRPRPRPECTPRP | 0.0551
RRIRCRPPRLPRPRPRPWAMPRP | -0.226
RRIRRRPPRLPRPRPRPVVMPRP | -0.0785
RRIRNRPPRLPRPRPRPIETPRP | -0.0081
RRIRMRPPRLPRPRPRPTIHPRP | -0.134
RRIRHRPPRLPRPRPRPVRSPRP | 0.172
RRIRVRPPRLPRPRPRPFGCPRP | -0.19
RRIRCRPPRLPRPRPRPPCQPRP | 0.0248
RRIRFRPPRLPRPRPRPYEPPRP | -0.204
RRIRVRPPRLPRPRPRPSGYPRP | -0.28
RRIRWRPPRLPRPRPRPDHVPRP | -0.13
RRIRYRPPRLPRPRPRPNDQPRP | -0.819
RRIRFRPPRLPRPRPRPPVPPRP | 0.859
RRIRKRPPRLPRPRPRPWNWPRP | -0.00973
RRIRNRPPRLPRPRPRPKVFPRP | 0.0215
RRIRKRPPRLPRPRPRPSLVPRP | 0.174
RRIRFRPPRLPRPRPRPLPFPRP | -0.452
RRIRVRPPRLPRPRPRPHVAPRP | -0.0516
RRIRGRPPRLPRPRPRPGYNPRP | 0.0217
RRIRHRPPRLPRPRPRPCWRPRP | 0.0476
RRIRSRPPRLPRPRPRPAFSPRP | -0.145

Sequence | shrunken log2 fold change
RRIRVRPPRLPRPRPRPCNRPRP | -0.0287
RRIRKRPPRLPRPRPRPYDCPRP | -0.171
RRIRTRPPRLPRPRPRPHTWPRP | -0.281
RRIRDRPPRLPRPRPRPAPEPRP | 0.225
RRIRIRPPRLPRPRPRPKSYPRP | -0.605
RRIRKRPPRLPRPRPRPRIYPRP | -0.0634
RRIRGRPPRLPRPRPRPPYDPRP | 0.0844
RRIRRRPPRLPRPRPRPAIFPRP | -0.0696
RRIRMRPPRLPRPRPRPQFGPRP | 0.104
RRIRSRPPRLPRPRPRPTIPPRP | -0.104
RRIRPRPPRLPRPRPRPMCVPRP | 0.076
RRIRWRPPRLPRPRPRPFIYPRP | -0.467
RRIRCRPPRLPRPRPRPKKGPRP | -0.129
RRIRARPPRLPRPRPRPDCNPRP | 0.606
RRIRARPPRLPRPRPRPIDTPRP | 0.0213
RRIRVRPPRLPRPRPRPCCSPRP | -0.192
RRIRLRPPRLPRPRPRPSRQPRP | -0.189
RRIRTRPPRLPRPRPRPWAGPRP | -0.0234
RRIRSRPPRLPRPRPRPSLVPRP | -0.345
RRIRKRPPRLPRPRPRPDQHPRP | -0.0427
RRIRARPPRLPRPRPRPQSYPRP | -0.118
RRIRQRPPRLPRPRPRPLMAPRP | -0.0462
RRIRGRPPRLPRPRPRPVLWPRP | 1
RRIRYRPPRLPRPRPRPVNMPRP | -0.47
RRIRQRPPRLPRPRPRPSYIPRP | -0.417

Sequence | shrunken log2 fold change
RRIRERPPRLPRPRPRPEYTPRP | -0.313
RRIRQRPPRLPRPRPRPAGQPRP | -0.143
RRIRKRPPRLPRPRPRPEKFPRP | -0.0568
RRIRQRPPRLPRPRPRPTINPRP | -0.362
RRIRGRPPRLPRPRPRPANGPRP | 0.378
RRIRRRPPRLPRPRPRPDLCPRP | 0.00591
RRIRNRPPRLPRPRPRPYVAPRP | -0.931
RRIRDRPPRLPRPRPRPLVMPRP | 0.0567
RRIRTRPPRLPRPRPRPSDTPRP | -0.212
RRIRLRPPRLPRPRPRPYWTPRP | -0.435
RRIRPRPPRLPRPRPRPHLEPRP | -0.122
RRIRERPPRLPRPRPRPSSDPRP | -0.164
RRIRRRPPRLPRPRPRPTNEPRP | 0.0166
RRIRPRPPRLPRPRPRPMERPRP | -0.0425
RRIRFRPPRLPRPRPRPQGYPRP | -0.249
RRIRTRPPRLPRPRPRPETGPRP | -0.00371
RRIRFRPPRLPRPRPRPPCGPRP | 0.362
RRIRPRPPRLPRPRPRPRSFPRP | 0.0582
RRIRRRPPRLPRPRPRPQSEPRP | 0.0256
RRIRDRPPRLPRPRPRPEDCPRP | -0.0123
RRIRYRPPRLPRPRPRPDLEPRP | -0.0757
RRIRFRPPRLPRPRPRPYKSPRP | -0.382
RRIRVRPPRLPRPRPRPPEQPRP | 0.0662
RRIRDRPPRLPRPRPRPPGCPRP | -0.0092
RRIRDRPPRLPRPRPRPLNPPRP | -0.478

Sequence | shrunken log2 fold change
RRIRLRPPRLPRPRPRPVEKPRP | 0.0244
RRIRVRPPRLPRPRPRPSPFPRP | -0.442
RRIRHRPPRLPRPRPRPTMFPRP | -0.0195
RRIRQRPPRLPRPRPRPRTRPRP | 0.225
RRIRHRPPRLPRPRPRPFNPPRP | -0.17
RRIRTRPPRLPRPRPRPKWVPRP | 0.129
RRIRWRPPRLPRPRPRPEKRPRP | 0.028
RRIRERPPRLPRPRPRPGLSPRP | -0.113
RRIRNRPPRLPRPRPRPEMYPRP | -0.0311
RRIRYRPPRLPRPRPRPFRQPRP | 0.0775
RRIRVRPPRLPRPRPRPPYRPRP | -0.0303
RRIRERPPRLPRPRPRPVPWPRP | 0.0881
RRIRIRPPRLPRPRPRPSISPRP | -0.046
RRIRDRPPRLPRPRPRPVWLPRP | 0.105
RRIRSRPPRLPRPRPRPRPNPRP | 0.345
RRIRCRPPRLPRPRPRPSMSPRP | -0.273
RRIRARPPRLPRPRPRPEPPPRP | 1.27
RRIRSRPPRLPRPRPRPQRFPRP | -0.152
RRIRFRPPRLPRPRPRPIMWPRP | 0.0691
RRIRHRPPRLPRPRPRPEAPPRP | 0.641
RRIRHRPPRLPRPRPRPGHFPRP | 0.0387
RRIRHRPPRLPRPRPRPETRPRP | 0.013
RRIRSRPPRLPRPRPRPCVQPRP | -0.0792
RRIRLRPPRLPRPRPRPKLYPRP | 0.0148
RRIRVRPPRLPRPRPRPRTSPRP | 0.0612
